± gives the uncertainty stated by the source.
B1: COUP transcription factor 1, residues 83 to 159; numbered along this chain, P10589 (parent)
chain: HIECVVCGDKSSGKHYGQFTCEGCKSFFKRSVRRNLTYTCRANRNCPIDQHHRNQCQYCRLKKCLKVGMRREAVQRG

Variants of: B1
Assay: abundance fitness (aPCA) (normalised: wild type 0, dead -1); higher = more abundant; growth selection in yeast, the domain comes from the species named
Conditions: Homo sapiens

**Q.** With HIECVVCGDKSSGKHYGQFTCEGCKSFFKRSVRRNLTYTCRANRNCPIDQHHRNQCQYCRMKKCLKVGMRREAVQRG [L61M] as the variant, how does the abundance fitness read?
**A.** 0.073 ± 0.042

**Q.** Which abundance fitness does the source give for HIECVVCSDKSSGKHYGQFTCEGCKSFFKRSVRRNLTYTCRANRNCPIDQHHRNQCQYCRLKKCLKVGMRREAVQRG [G8S] here?
**A.** 0.077 ± 0.073

**Q.** For HIECVVCGDKSSGKHYGQFTCEGCKSFFKRSVRRNLTYTCRANRNCPIDQHHRNVCQYCRLKKCLKVGMRREAVQRG [Q55V], which abundance fitness is on record?
**A.** -0.003 ± 0.04

**Q.** With HIECVVCGDKSSGKHYGQFTCEGCKSFFKRSVRRNLTYTCRANRNCPIDQHHRNQCQYCRLKKCLKVGMRFEAVQRG [R71F] as the variant, how does the abundance fitness read?
**A.** 0.016 ± 0.066

**Q.** For HIECVVCGDKSSGKHYGQFTCEGCKSFFPRSVRRNLTYTCRANRNCPIDQHHRNQCQYCRLKKCLKVGMRREAVQRG [K29P], which abundance fitness is on record?
**A.** -0.534 ± 0.14

**Q.** Which abundance fitness does the source give for HIECVVCGDKSSGKHYGQFTCEGCKSFFVRSVRRNLTYTCRANRNCPIDQHHRNQCQYCRLKKCLKVGMRREAVQRG [K29V] here?
**A.** 0.013 ± 0.042

**Q.** With HIECVVCGDKSSGKHYGQFTCEGCKSFFKRSVRRNETYTCRANRNCPIDQHHRNQCQYCRLKKCLKVGMRREAVQRG [L36E] as the variant, how does the abundance fitness read?
**A.** 0.162 ± 0.07

**Q.** For HIECVVCGDKSSGKHYGQFTCEGCKSFFKRSVRRNLTYTCMANRNCPIDQHHRNQCQYCRLKKCLKVGMRREAVQRG [R41M], which abundance fitness is on record?
**A.** 0.08 ± 0.078

**Q.** For HIECVVCGDKSSGKHYGQTTCEGCKSFFKRSVRRNLTYTCRANRNCPIDQHHRNQCQYCRLKKCLKVGMRREAVQRG [F19T], which abundance fitness is on record?
**A.** -0.094 ± 0.11

**Q.** With HIECVVCGDKSSGKHYGQITCEGCKSFFKRSVRRNLTYTCRANRNCPIDQHHRNQCQYCRLKKCLKVGMRREAVQRG [F19I] as the variant, how does the abundance fitness read?
**A.** -0.279 ± 0.27

**Q.** Which abundance fitness does the source give for HIECVVCGDKSSGKHYGQDTCEGCKSFFKRSVRRNLTYTCRANRNCPIDQHHRNQCQYCRLKKCLKVGMRREAVQRG [F19D] here?
**A.** -0.052 ± 0.12

**Q.** With HIECVVCGDKSSGKHYGQFVCEGCKSFFKRSVRRNLTYTCRANRNCPIDQHHRNQCQYCRLKKCLKVGMRREAVQRG [T20V] as the variant, how does the abundance fitness read?
**A.** 0.156 ± 0.038

**Q.** With HIECVVCGDKSSGKHYGQFTCEGCKSFFKRSVRRNLTYTCRANRNCPIDQHHRNQCQYCRLKKCLKVGMRREAHQRG [V74H] as the variant, how does the abundance fitness read?
**A.** -0.104 ± 0.084

**Q.** Which abundance fitness does the source give for HIECVVCGDKSSGKHYGQFTCEGCKSFFKRSVRRNLTYTCRANRNCPIDQHHRNQCQYCRLKKCLKVGMRREAIQRG [V74I] here?
**A.** -0.292 ± 0.072

**Q.** Which abundance fitness does the source give for HIECVVCGDKSSGKHYGQFTCEGCKSFFKRSVRRNLTYTCRANRNCPIDQHHRNQCQYCRLKKCLKVGMRREAKQRG [V74K] here?
**A.** -0.264 ± 0.059

**Q.** With HIECVVCGDKSSGDHYGQFTCEGCKSFFKRSVRRNLTYTCRANRNCPIDQHHRNQCQYCRLKKCLKVGMRREAVQRG [K14D] as the variant, how does the abundance fitness read?
**A.** 0.228 ± 0.31

**Q.** Which abundance fitness does the source give for HIECVVCGDKSSGKHYGQFTCEGCKSFFKRSVRRNLTYTCRANRNCPIDQQHRNQCQYCRLKKCLKVGMRREAVQRG [H51Q] here?
**A.** 0.081 ± 0.066

**Q.** For HIECVVCGDKSSGKHYGQFTCEGCKSFFKRSVRRNLTYTCRANRNCPIDQDHRNQCQYCRLKKCLKVGMRREAVQRG [H51D], which abundance fitness is on record?
**A.** -0.022 ± 0.065

**Q.** For HIECVVCGDKDSGKHYGQFTCEGCKSFFKRSVRRNLTYTCRANRNCPIDQHHRNQCQYCRLKKCLKVGMRREAVQRG [S11D], which abundance fitness is on record?
**A.** -0.28 ± 0.15

**Q.** Which abundance fitness does the source give for HIECVVCGDKVSGKHYGQFTCEGCKSFFKRSVRRNLTYTCRANRNCPIDQHHRNQCQYCRLKKCLKVGMRREAVQRG [S11V] here?
**A.** -0.399 ± 0.053

**Q.** Which abundance fitness does the source give for HIECVVIGDKSSGKHYGQFTCEGCKSFFKRSVRRNLTYTCRANRNCPIDQHHRNQCQYCRLKKCLKVGMRREAVQRG [C7I] here?
**A.** -0.912 ± 0.41

**Q.** With HIECVVCGDKSSGKHYGQFTCEGCKSFFKCSVRRNLTYTCRANRNCPIDQHHRNQCQYCRLKKCLKVGMRREAVQRG [R30C] as the variant, how does the abundance fitness read?
**A.** 0.067 ± 0.31

**Q.** For HIECVVCGDKSSGKHYGQFTCEGCKSFFKRSVRRNLTYTCRANRNCPIDQHHRNQCQYPRLKKCLKVGMRREAVQRG [C59P], which abundance fitness is on record?
**A.** -0.541 ± 0.094

**Q.** For HIECVVCGDKSSGKHYGQFTCEGCKSFFKRSVRRNLTYTCRANWNCPIDQHHRNQCQYCRLKKCLKVGMRREAVQRG [R44W], which abundance fitness is on record?
**A.** -0.07 ± 0.051

**Q.** With HIECVVCGDKSSGKHYGQFTCEGCKSFFKRSVRRNLKYTCRANRNCPIDQHHRNQCQYCRLKKCLKVGMRREAVQRG [T37K] as the variant, how does the abundance fitness read?
**A.** 0.139 ± 0.054

**Q.** For HIECVVCGDKSSGKHYGQFTCEGCKSFFKRSVRRNLEYTCRANRNCPIDQHHRNQCQYCRLKKCLKVGMRREAVQRG [T37E], which abundance fitness is on record?
**A.** 0.178 ± 0.069

**Q.** For HIECVDCGDKSSGKHYGQFTCEGCKSFFKRSVRRNLTYTCRANRNCPIDQHHRNQCQYCRLKKCLKVGMRREAVQRG [V6D], which abundance fitness is on record?
**A.** -0.736 ± 0.16

**Q.** For HIECVVCGDKSSGKHYGQFTCEGCKSFFKRSVRRNLTYTCRANRNCPIDQHHRNQCQYCRLKKCLKVGMRREKVQRG [A73K], which abundance fitness is on record?
**A.** -0.183 ± 0.056

**Q.** With HIECVVCGDKSSGKHYGQFTCEGCKSFFKRSVRRNLTGTCRANRNCPIDQHHRNQCQYCRLKKCLKVGMRREAVQRG [Y38G] as the variant, how does the abundance fitness read?
**A.** -0.458 ± 0.061

**Q.** For HIECVVCGDKSSGKHYGQFTCEGCKSFFKRSVRRVLTYTCRANRNCPIDQHHRNQCQYCRLKKCLKVGMRREAVQRG [N35V], which abundance fitness is on record?
**A.** -0.104 ± 0.072

**Q.** Which abundance fitness does the source give for HIVCVVCGDKSSGKHYGQFTCEGCKSFFKRSVRRNLTYTCRANRNCPIDQHHRNQCQYCRLKKCLKVGMRREAVQRG [E3V] here?
**A.** -0.536 ± 0.057

**Q.** For HIRCVVCGDKSSGKHYGQFTCEGCKSFFKRSVRRNLTYTCRANRNCPIDQHHRNQCQYCRLKKCLKVGMRREAVQRG [E3R], which abundance fitness is on record?
**A.** -0.408 ± 0.049

**Q.** For HIECVVCGDKSSGKHYGQFTCEGCKSFFKRSVRRNLTYTCRANRNCPIDQHHRNQCQYCRLKKCLKVGGRREAVQRG [M69G], which abundance fitness is on record?
**A.** -0.711 ± 0.053

**Q.** Which abundance fitness does the source give for HIECVVCGDKSSGKHYGQFTCEGCKSFFKRSVRRNLTYTCRANRNCPIDQHHRNQCQYCRLKKCLKVRMRREAVQRG [G68R] here?
**A.** -0.65 ± 0.049

**Q.** With HIECVVCGDKSSGKHYGQFTCEGCKSFFKRSVRRNLTYTCRANRNCPIDQHHRNQCQYCRLKKCLKVCMRREAVQRG [G68C] as the variant, how does the abundance fitness read?
**A.** -0.597 ± 0.094

**Q.** For HIECVVCGDKSSGKHYGQFTCEGCKSFFKRSVRRNLTYTCRANRNCPIDQHHRNQCQYCRLKKCLKVPMRREAVQRG [G68P], which abundance fitness is on record?
**A.** -0.939 ± 0.15
